Reference: publication PMC2132950
One block for each substance: values may come before it.

Assays:
[1] = biological target: taxol-stabilized microtubules (bovine (brain)) (UniProt Q6B856); experiment: co-sedimentation
[2] = biological target: kinesin heavy chain deletion mutant H810 (stop codon after amino acid 810), myc-tagged (rat) (UniProt Q2PQA9); experiment: co-IP
UniProt Q2PQA9, sequence (Q2PQA9 2-963, stated change not applied): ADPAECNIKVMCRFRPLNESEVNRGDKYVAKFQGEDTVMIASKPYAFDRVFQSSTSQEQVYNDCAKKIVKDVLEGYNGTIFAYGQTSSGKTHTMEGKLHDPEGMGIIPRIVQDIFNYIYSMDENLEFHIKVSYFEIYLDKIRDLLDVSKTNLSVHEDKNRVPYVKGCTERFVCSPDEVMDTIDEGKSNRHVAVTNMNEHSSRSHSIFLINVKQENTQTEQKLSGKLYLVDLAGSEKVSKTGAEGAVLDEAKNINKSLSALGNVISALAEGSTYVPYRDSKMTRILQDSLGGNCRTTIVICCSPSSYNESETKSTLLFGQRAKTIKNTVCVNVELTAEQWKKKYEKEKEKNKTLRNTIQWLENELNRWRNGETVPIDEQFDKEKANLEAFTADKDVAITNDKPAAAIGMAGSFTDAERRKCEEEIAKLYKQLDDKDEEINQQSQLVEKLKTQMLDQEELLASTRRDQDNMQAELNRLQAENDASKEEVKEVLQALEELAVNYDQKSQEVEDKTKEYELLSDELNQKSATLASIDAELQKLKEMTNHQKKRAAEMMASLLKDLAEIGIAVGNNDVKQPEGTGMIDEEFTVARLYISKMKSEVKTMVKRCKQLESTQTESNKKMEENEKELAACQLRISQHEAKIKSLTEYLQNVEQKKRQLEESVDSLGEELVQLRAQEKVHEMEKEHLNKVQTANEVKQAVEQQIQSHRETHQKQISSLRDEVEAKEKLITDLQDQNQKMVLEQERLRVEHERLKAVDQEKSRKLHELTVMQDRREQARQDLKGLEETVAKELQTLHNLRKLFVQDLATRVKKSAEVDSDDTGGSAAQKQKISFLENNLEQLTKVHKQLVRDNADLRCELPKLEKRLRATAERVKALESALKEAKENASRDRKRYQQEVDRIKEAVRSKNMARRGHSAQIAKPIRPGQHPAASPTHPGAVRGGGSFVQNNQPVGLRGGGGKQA

UniProt Q6B856, sequence (Q6B856 whole entry, looked up): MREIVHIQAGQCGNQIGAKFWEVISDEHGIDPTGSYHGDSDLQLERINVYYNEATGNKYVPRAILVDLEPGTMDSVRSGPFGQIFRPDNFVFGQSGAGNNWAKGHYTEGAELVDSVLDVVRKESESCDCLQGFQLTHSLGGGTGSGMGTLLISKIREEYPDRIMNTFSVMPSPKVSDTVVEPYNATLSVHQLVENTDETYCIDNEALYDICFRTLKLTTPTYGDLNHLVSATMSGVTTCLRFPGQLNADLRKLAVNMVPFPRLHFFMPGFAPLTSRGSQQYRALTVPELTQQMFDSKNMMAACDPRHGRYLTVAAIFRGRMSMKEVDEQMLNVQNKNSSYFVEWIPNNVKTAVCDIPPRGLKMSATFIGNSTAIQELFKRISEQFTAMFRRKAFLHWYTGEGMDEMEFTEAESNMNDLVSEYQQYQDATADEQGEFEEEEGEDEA

Substance: HC coexpressed with the LC deletion mutant L176 (from UniProt Q2PQA9 1-963; P37285 1-176) (complex)
percent of HC bound to MTs [1]: 50% | percent of L176 bound to MTs [1]: 20%

Substance: NH2-terminal 420 amino acids of human conventional kinesin heavy chain (from UniProt P33176 1-420) (domain or fragment)
tubulin concentration at half-maximal binding [1]: 0.15 mM

Now from value to substance:

percent of the HC construct sedimented with MTs [1]: 90%
Substance: HC deletion mutant H810 coexpressed with LC (from UniProt Q2PQA9 1-810; P37285 1-560) (complex)

percent of the HC construct sedimented with MTs [1]: 50 to 95%
Substance: HC deletion mutant H891 coexpressed with LC (from UniProt Q2PQA9 1-891; P37285 1-560) (complex)

percent of LC coprecipitated [2]: 50%
Substance: kinesin light chain splice form C (rat), HA-tagged (from UniProt P37285 1-560) (natural protein)
